Values joined by “and” are separate entries in the source; they are usually repeats but may differ in a detail not shown here. Identical values can stand only once.
Columns and labels:
Aphids (Aphids gossypii) = assay: Aphid count per leaf on cotton, field trial; type: in vivo
Source text: (§1) Aphids (Aphids gossypii) infect cotton during the entire growth season. The damage of aphid infection ranges from honeydew deposit that contaminates the lint and reduces crop value to defoliation that reduces or destroys crops. To protect plants from aphid infection, cotton is usually sprayed with insecticides, for example Asana XL when the infection pressure is not very high, and Admire when the infestation pressure is high. The effect of a hypersensitive response elicitor on aphids in cotton was studied by a trial involving a randomized complete block design. This involved treatment with Erwinia amylovora hypersensitive response elicitor (i.e. HP-100™) at 20, 60, and 80 ppm and a chemical insecticide, Asana XL, at 8 oz./ac. Each treatment involved foliar application beginning at cotyledon to three true leaves and thereafter at 14 day intervals using a backpack sprayer. Aphid counts and overall growth of the cotton were made immediately prior to spray application at 14, 28, 35, and 42 days after the first treatment (“DAT 1”). Twenty-five randomly selected leaves per plot were collected at the first three sampling dates and the leaves per plot at the final sampling date.

pepper = assay: Pepper tolerance to SENCOR herbicide damage; type: in vivo
Source text: Pepper seedlings were drenched with hypersensitive response elicitor at 20 ppm seven days before transplanting, sprayed seven days after the transplanting, and then, sprayed every fourteen days. Standard chemicals, Brave, Maneb, Kocide, and Admire, were used for the rest of the treatment. […] The pepper field was applied with the herbicide SENCOR which is not labeled for pepper. This herbicide is known to cause severe foliar damage to pepper in chemically-treated plants but not with hypersensitive response elicitor-treated plants.
The difference between the adverse effect of the herbicide on the hypersensitive response elicitor and non-hypersensitive response elicitor treated plants is dramatic. […] In contrast, 53 out of the 60 chemically-treated pepper plants had severe damage, 40-57% of the leaves were damaged, and 20 plants were dead. The ability of hypersensitive response elicitors to help crops withstand the phytotoxic effects of a herbicide is very important benefit to in agricultural industry.

cotton = assay: Insecticide stress tolerance of cotton (defoliation, formed cotton balls); type: in vivo
Source text: as §1
2. Hypersensitive response elicitor-treated cotton was more resistant to the damage caused by Pravado (Admire) and Asana. […]

cucumber = assay: Cucumber field trial under drought (survival, flowering, yield); type: in vivo; design: Yield/Replicate: unit not given beside the values; conditions: for Yield summed over the three replicates: control 39.3; for Yield/Replicate / kg/plant: replicates I-III; for % of the Yield Increase: versus control; for kg/plant: cucumber fruit yield
Description: A cucumber field trial was set up to test the effect of Erwinia amylovora hypersensitive response elicitor on disease control, tolerance to drought stress, and yield. Three different rates were tested, there at 15, 30, and 60 μg/ml. In addition to hypersensitive response elicitor treatment, there was an untreated control. Each treatment contained three replicate plots. When the first true leaf emerges, hypersensitive response elicitor was sprayed with a back bag sprayer. The second spray was applied ten days after the first spray. The third application was right after the recovery of cucumber seedlings after the transplanting to the field. Individual treatment was randomly assigned in the field.
When the first true leaf emerged (Day 0), a first application was sprayed. Usually cucumber seedlings are transplanted when seedlings show two true leaves. It has been known that the recovery rate after the transplanting is closely related to the size of the seedlings. Because of the drought, the seedlings were maintained in the nursery for an extra ten days and the second spray was applied on Day 10. Two days after the second spray, the plants were transplanted into fields and covered with plastic sheets. The plants had 4-5 true leaves.

[1] = cited from earlier work

B1: HP-1000: Erwinia amylovora hypersensitive response elicitor protein applied to plants by foliar spray or drench (protein, UniProt Q01099 1-403, looked up)
Harpin HrpN: MSLNTSGLGASTMQISIGGAGGNNGLLGTSRQNAGLGGNSALGLGGGNQNDTVNQLAGLLTGMMMMMSMMGGGGLMGGGLGGGLGNGLGGSGGLGEGLSNALNDMLGGSLNTLGSKGGNNTTSTTNSPLDQALGINSTSQNDDSTSGTDSTSDSSDPMQQLLKMFSEIMQSLFGDGQDGTQGSSSGGKQPTEGEQNAYKKGVTDALSGLMGNGLSQLLGNGGLGGGQGGNAGTGLDGSSLGGKGLQNLSGPVDYQQLGNAVGTGIGMKAGIQALNDIGTHSDSSTRSFVNKGDRAMAKEIGQFMDQYPEVFGKPQYQKGPGQEVKTDDKSWAKALSKPDDDGMTPASMEQFNKAKGMIKSAMAGDTGNGNLQARGAGGSSLGIDAMMAGDAINNMALGKLGAA
Number of aphids per leaf (Aphids (Aphids gossypii); 20 μg/ml a.i., 1 spray, 14 DAT 1): 0.2 a per leaf
Number of aphids per leaf (Aphids (Aphids gossypii); 20 μg/ml a.i., 2 sprays, 28 DAT 1): 7.8 b per leaf
Number of aphids per leaf (Aphids (Aphids gossypii); 20 μg/ml a.i., 3 sprays, 35 DAT 1): 22.9 b per leaf
Number of aphids per leaf (Aphids (Aphids gossypii); 20 μg/ml a.i., 4 sprays, 42 DAT 1): 322.1 a per leaf
Number of aphids per leaf (Aphids (Aphids gossypii); 60 μg/ml a.i., 1 spray, 14 DAT 1): 0.1 a per leaf
Number of aphids per leaf (Aphids (Aphids gossypii); 60 μg/ml a.i., 2 sprays, 28 DAT 1): 4.9 b per leaf
Number of aphids per leaf (Aphids (Aphids gossypii); 60 μg/ml a.i., 3 sprays, 35 DAT 1): 34.6 b per leaf
Number of aphids per leaf (Aphids (Aphids gossypii); 60 μg/ml a.i., 4 sprays, 42 DAT 1): 168.3 a per leaf
Number of aphids per leaf (Aphids (Aphids gossypii); 80 μg/ml a.i., 1 spray, 14 DAT 1): 0.0 a per leaf
Number of aphids per leaf (Aphids (Aphids gossypii); 80 μg/ml a.i., 2 sprays, 28 DAT 1): 2.7 b per leaf
Number of aphids per leaf (Aphids (Aphids gossypii); 80 μg/ml a.i., 3 sprays, 35 DAT 1): 25.8 b per leaf
Number of aphids per leaf (Aphids (Aphids gossypii); 80 μg/ml a.i., 4 sprays, 42 DAT 1): 510.2 a per leaf
Number of plants with Damage Rating 1 (pepper; 1 = No damage, 60 plants, SENCOR herbicide, elicitor 20 ppm): 1
Number of plants with Damage Rating 2 (pepper; 2 = 0-20% leaves damaged, 60 plants, SENCOR herbicide): 38
Number of plants with Damage Rating 3 (pepper; 3 = 20-40% leaves damaged, 60 plants, SENCOR herbicide): 17
Number of plants with Damage Rating 4 (pepper; 4 = 40-50% leaves damaged, 60 plants, SENCOR herbicide): 3
Number of plants with Damage Rating 6 (pepper; 6 = More than 75% leaves damaged or entire plant dead, 60 plants, SENCOR herbicide): 0
Plants with only minor damage by the herbicide (damaged leaves less than 20%) (pepper; of 60 plants, SENCOR): Thirty-nine of the 60
Number of plants with Damage Rating 5 (pepper; rating 5 not defined in footnote, 60 plants, SENCOR herbicide): 1
Damage Index % (pepper; sum of rating times number of plants, divided by total plants times 6): 41%
Defoliation of cotton after second chemical spraying (cotton; after Pravado (Admire) applied to all plots, elicitor especially at 80 ppm): no defoliation
No. balls/10 plants/replicate (cotton; formed cotton balls on ten plants in each of four replicates, after insecticide stress, elicitor at 80 ppm): 35
Yield summed over the three replicates (cucumber; 15 μg/ml): 103.8
Yield/Replicate (cucumber; 15 μg/ml, listed as HP 15): 37.5 and 30.0 and 36.3
% of the Yield Increase (cucumber; 15 μg/ml): 241%
Yield summed over the three replicates (cucumber; 30 μg/ml): 133.2
Yield/Replicate (cucumber; 30 μg/ml, listed as HP 30): 46.2 and 42.9 and 44.1
% of the Yield Increase (cucumber; 30 μg/ml): 339%
Final yield relative to control plants (cucumber; 30 ppm): three times greater yield
kg/plant (cucumber; 15 μg/ml, listed as HP 15): 1.25 kg/plant and 1.00 kg/plant and 1.21 kg/plant
kg/plant (cucumber; 30 μg/ml, listed as HP 30): 1.54 kg/plant and 1.43 kg/plant and 1.47 kg/plant
Start of flowering earlier than untreated control (cucumber; drought): 14 days
Cucumber seedlings survived after transplanting (cucumber; drought, untreated 57%): More than 80%
Cucumber fruits per plant in the first harvest (cucumber; drought, virtually no fruit from untreated control): more than 0.4 kilograms

B2: hypersensitive response elicitor polypeptide or protein derived from Erwinia amylovora: hypersensitive response elicitor protein from Erwinia amylovora, amino acid sequence SEQ. ID. No. 3 (protein, listed as Erwinia amylovora)
chain: MSLNTSGLGASTMQISIGGAGGNNGLLGTSRQNAGLGGNSALGLGGGNQNDTVNQLAGLLTGMMMMMSMMGGGGLMGGGLGGGLGNGLGGSGGLGEGLSNALNDMLGGSLNTLGSKGGNNTTSTTNSPLDQALGINSTSQNDDSTSGTDSTSDSSDPMQQLLKMFSEIMQSLFGDGQDGTQGSSSGGKQPTEGEQNAYKKGVTDALSGLMGNGLSQLLGNGGLGGGQGGNAGTGLDGSSLGGKGLQNLSGPVDYQQLGNAVGTGIGMKAGIQALNDIGTHRHSSTRSFVNKGDRAMAKEIGQFMDQYPEVFGKPQYQKGPGQEVKTDDKSWAKALSKPDDDGMTPASMEQFNKAKGMIKRPMAGDTGNGNLQARGAGGSSLGIDAMMAGDAINNMALGKLGAA
Time heat stable at 100° C. [1]: at least 10 minutes

Source: patent US6624139B1, “Hypersensitive response elicitor-induced stress resistance” (Eden Bioscience Corporation, priority 1998, dated 2003)
